According to patent US20220298260A1 (MYTHIC THERAPEUTICS, published 2022):
Positions count from the first letter of the chain named.

B1: MYT2244 (antibody, V domains shown)
VH: EVQLVESGGGLVQPGGSLRLSCAASGFNIRTQSIHWVRQAPGKGLEWIGDIFPIDGITHYADSVKGRFTISADTSKNTAYLQMNSLRAEDTAVYYCARGSWSWPSGMDYYLDYWGQGTLVTVSS
VL: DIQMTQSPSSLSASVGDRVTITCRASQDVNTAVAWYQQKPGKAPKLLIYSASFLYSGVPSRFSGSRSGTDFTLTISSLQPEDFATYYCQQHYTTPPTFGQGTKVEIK
notes: IgG
B2: MYT2252 (antibody, V domains shown)
VH: B1 VH with H59D, A97H
VL: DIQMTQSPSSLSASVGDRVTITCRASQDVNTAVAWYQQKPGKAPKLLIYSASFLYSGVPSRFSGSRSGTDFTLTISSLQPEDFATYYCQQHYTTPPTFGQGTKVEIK
notes: IgG
B3: MYT2254 (antibody, V domains shown)
VH: B1 VH with H59D, G99H
VL: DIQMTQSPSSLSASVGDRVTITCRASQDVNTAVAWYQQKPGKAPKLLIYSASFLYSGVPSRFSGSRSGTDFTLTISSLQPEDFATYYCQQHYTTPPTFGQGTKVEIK
notes: IgG
B4: MYT2259 (antibody, V domains shown)
VH: B1 VH with H59D, P104H
VL: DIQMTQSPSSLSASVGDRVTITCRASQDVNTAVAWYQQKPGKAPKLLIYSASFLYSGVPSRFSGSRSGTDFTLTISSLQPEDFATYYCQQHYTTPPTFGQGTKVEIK
notes: IgG
B5: MYT2261 (antibody, V domains shown)
VH: B1 VH with H59D, G106H
VL: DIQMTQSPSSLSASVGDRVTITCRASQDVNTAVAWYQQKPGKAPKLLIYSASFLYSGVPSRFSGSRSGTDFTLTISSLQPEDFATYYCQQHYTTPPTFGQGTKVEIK
notes: IgG
B6: MYT4503 (antibody, V domains shown)
VH: B1 VH with H59D
VL: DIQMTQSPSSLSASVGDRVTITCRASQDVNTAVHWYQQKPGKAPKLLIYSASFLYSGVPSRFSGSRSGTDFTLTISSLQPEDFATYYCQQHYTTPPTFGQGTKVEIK
notes: IgG
B7: MYT4501 (antibody, V domains shown)
VH: B1 VH with H59D
VL: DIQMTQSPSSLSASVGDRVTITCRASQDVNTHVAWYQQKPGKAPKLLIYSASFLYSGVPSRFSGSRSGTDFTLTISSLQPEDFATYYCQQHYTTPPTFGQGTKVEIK
notes: IgG
B8: mirvetuximab (antibody, V domains shown)
VH: QVQLVQSGAEVVKPGASVKISCKASGYTFTGYFMNWVKQSPGQSLEWIGRIHPYDGDTFYNQKFQGKATLTVDKSSNTAHMELLSLTSEDFAVYYCTRYDGSRAMDYWGQGTTVTVSS
VL: DIVLTQSPLSLAVSLGQPAIISCKASQSVSFAGTSLMHWYHQKPGQQPRLLIYRASNLEAGVPDRFSGSGSKTDFTLTISPVEAEDAATYYCQQSREYPYTFGGGTKLEIK
notes: IgG expressed in Expi293; the entries are labelled heavy/light chain of the IgG but hold only the variable domains; also called MYT0596
B9: MYT0631 (antibody, V domains shown)
VH: B8 VH with G101H
VL: B8 VL
notes: IgG
B10: MYT0634 (antibody, V domains shown)
VH: B8 VH with A104H
VL: B8 VL
notes: IgG
B11: MYT0613 (antibody, V domains shown)
VH: B8 VH with P53H
VL: B8 VL
notes: IgG
B12: MYT0603 (antibody, V domains shown)
VH: B8 VH with F29H
VL: B8 VL
notes: IgG
B13: MYT1154 (antibody, V domains shown)
VH: B8 VH with A24H, Y27H, F59H
VL: B8 VL
notes: IgG
B14: MYT2194 (antibody, V domains shown)
VH: EVQLVESGGGVVQPGRSLRLSCSASGFTFSGYGLHWVRQAPGKGLEWVAMISSGGSYTYYADSVKGRFAISRDNAKNTLFLQMDSLRPEDTGVYFCARHGDDPAWFAYWGQGTPVTVSS
VL: DIQLTQSPSSLSASVGDRVTITCSVSSSISSNNLHWYQQKPGKAPKPWIYGTSNLASGVPSRFSGSGSGTDYTFTISSLQPEDIATYYCQQWSSYPYMYTFGQGTKVEIK
notes: IgG
B15: MYT2219 (antibody, V domains shown)
VH: B14 VH with H35S, A104H
VL: B14 VL
notes: IgG
B16: MYT2221 (antibody, V domains shown)
VH: B14 VH with H35S, F106H
VL: B14 VL
notes: IgG
B17: MYT2196 (antibody, V domains shown)
VH: B14 VH with H35S, I51H
VL: B14 VL
notes: IgG
B18: MYT4542 (antibody, V domains shown)
VH: B14 VH with H35S
VL: B14 VL with P96H
notes: IgG
B19: MYT2195 (antibody, V domains shown)
VH: B14 VH with H35S, M50H
VL: B14 VL
notes: IgG
B20: MYT4544 (antibody, V domains shown)
VH: B14 VH with H35S
VL: B14 VL with M98H
notes: IgG
B21: MYT4545 (antibody, V domains shown)
VH: B14 VH with H35S
VL: B14 VL with Y99H
notes: IgG
B22: MYT4546 (antibody, V domains shown)
VH: B14 VH with H35S
VL: B14 VL with T100H
notes: IgG
B23: MYT2217 (antibody, V domains shown)
VH: B14 VH with H35S, D102H
VL: B14 VL
notes: IgG
B24: MYT4543 (antibody, V domains shown)
VH: B14 VH with H35S
VL: B14 VL with Y97H
notes: IgG
B25: MYT2215 (antibody, V domains shown)
VH: B14 VH with H35S, G100H
VL: B14 VL
notes: IgG

What was measured:
[1] = target: T1, FOLR1 (R&D Systems, Cat #5646-FR) (human, UniProt P15328 25-233); assay: BLI, IgG on anti-human Fc sensor
T1 construct: Bought soluble protein; also called Folate Receptor 1

[2] = target: T2, FOLR1 on NIH:OVCAR-3 cells (human, UniProt P15328 25-233); assay: flow cytometry on NIH:OVCAR-3 cells, Alexa Fluor 488 anti-human IgG
T2 construct: Endogenous FOLR1 of NIH:OVCAR-3 (FOLR1+) cells; also called cell surface FOLR1
Method: Binding affinity of selected anti-FOLR1 pH engineered antibody variants from Examples 9 and 11 were measured on NIH:OVCAR-3 cells. 100,000 cells per well were resuspended in […] FC buffer in a 96 well deep well plate. Mirvetuximab and pH engineered antibody variants were serially diluted at a 1:3 dilution. 100 µL of diluted antibody was added to each well with final concentration ranging from ˜100 nM to 0.024 pM and incubated for 2 hours at 4° C. Post incubation, the cells were spun at 2000 rpm for 2 min and supernatant was discarded. Cells were washed twice with 500 μL of ice-cold FC buffer and resuspended with 100 μL of FC buffer. The cells were then transferred from the deep well plate to 96 well round bottom plate, spun at 2000 rpm for 2 min and incubated with 100 μL of 10 μg/mL Alexa Fluor 488 conjugated goat anti-human IgG secondary antibody (ThermoFisher Scientific, A11013) for 30 min. Post incubation, cells were washed with FC buffer and resuspended in 100 μL, of FC buffer to read on a BD Accuri C6 flow cytometer. […] MYT0603 and MYT1154 show high affinity binding to cell surface FOLR1 on NIH:OVCAR-3 cells in the pM-nM range confirming that variants created through pH engineering can retain functionally appropriate affinities as compared to their corresponding starting ABPCs (e.g., mirvetuximab).

[3] = target: T1, FOLR1 (R&D Systems, Cat #5646-FR); assay: BLI, IgG on anti-human Fc sensor, 50 nM FOLR1

T1 sequence (P15328 25-233 limits assumed): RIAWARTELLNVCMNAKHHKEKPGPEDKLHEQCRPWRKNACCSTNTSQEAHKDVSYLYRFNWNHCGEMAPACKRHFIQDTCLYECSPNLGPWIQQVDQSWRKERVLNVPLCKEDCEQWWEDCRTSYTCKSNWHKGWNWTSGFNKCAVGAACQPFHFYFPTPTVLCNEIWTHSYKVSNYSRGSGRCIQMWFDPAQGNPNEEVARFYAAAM
T2 sequence (P15328 25-233): as the sequence (P15328 25-233 limits assumed) above

Row | Binder | binding result [1] | other results
1 | B1 | no binding (tested: 50 nM) | –
2 | B2 | no binding (tested: 50 nM) | –
3 | B3 | no binding (tested: 50 nM) | –
4 | B4 | no binding (tested: 50 nM) | –
5 | B5 | no binding (tested: 50 nM) | –
6 | B6 | no binding (tested: 50 nM) | –
7 | B7 | no binding (tested: 50 nM) | –
8 | B8 | – | IC50 [2]: 0.25 nM
9 | B9 | no binding (tested: 50 nM) | –
10 | B10 | no binding (tested: 50 nM) | –
11 | B11 | no binding (tested: 50 nM) | –
12 | B12 | – | IC50 [2]: 0.65 nM
13 | B13 | – | IC50 [2]: 0.396 nM
14 | B14 | no binding (tested: 50 nM) | –
15 | B15 | no binding (tested: 50 nM) | –
16 | B16 | no binding (tested: 50 nM) | –
17 | B17 | no binding (tested: 50 nM) | –
18 | B18 | – | binding result [3]: binds
19 | B19 | no binding (tested: 50 nM) | –
20 | B20 | – | binding result [3]: binds
21 | B21 | – | binding result [3]: binds
22 | B22 | – | binding result [3]: binds
23 | B23 | no binding (tested: 50 nM) | –
24 | B24 | – | binding result [3]: binds
25 | B25 | no binding (tested: 50 nM) | –
